Assay results: patent US20110059142A1, “ENCAPSULATION OF BIOLOGICALLY ACTIVE AGENTS” (priority 2008, published 2011)

Assay: In vivo evaluation of HIP-PBCA nanoparticle delivery of dalargin to the brain, intravenous
Settings: mouse, i.v., 20 minutes following injection, LC-MS-MS
Experimental: The ability of the HIP-PBCA nanoparticles to deliver their peptide load to the brain was determined in vivo in the mouse model. HIP-PBCA nanoparticles containing encapsulated dalargin using the HIP process were compared to HIP-PBCA nanoparticles that had had the peptide adsorbed onto the particle surface as reported by Kreuter et al. The nanoparticles were prepared for brain delivery via the intravenous route by coating their surface with polysorbate 80 surfactant. Briefly, the nanoparticles were incubated in PBS containing 1% w/v surfactant for 30 minutes prior to injection. The surfactant has been reported in the literature to indirectly target the nanoparticles to the brain by promoting adsorption of serum apolipoproteins onto the nanoparticle surface. This allows the particles to bind to the apolipoprotein receptor on the blood brain barrier and transcytose to reach the brain. The following formulations were compared: • 1. HIP-PBCA nanoparticles alone (5:1 HIP content) • 2. HIP-PBCA nanoparticles alone (10:1 HIP content) • 3. Dalargin in solution (2.0 mg/kg) • 4. HIP-PBCA nanoparticles with dalargin adsorbed onto the surface (2.0 mg/kg total dose used in formulation) • 5. […]
The mice were sacrificed at 20 minutes following injection, and the brains and blood samples collected and analysed for the presence of peptide by LC-MS-MS. […]

In the case of “dalargin (YAGFLR; Humanised sequence of mus musculus and homo sapiens) [9: YAGFLR]”, the “Dalargin levels in the brain (detectability)” value was “detectable in the brain only when encapsulated within the particles using the HIP process”.
